Experimental data reported in article PMC4624954, “Delineating the Tes Interaction Site in Zyxin and Studying Cellular Effects of Its Disruption” (PLoS ONE, 2015).

Target: T1, Zyx FL WT-GFP (human, UniProt Q15942 1-572)
T1 sequence (looked up): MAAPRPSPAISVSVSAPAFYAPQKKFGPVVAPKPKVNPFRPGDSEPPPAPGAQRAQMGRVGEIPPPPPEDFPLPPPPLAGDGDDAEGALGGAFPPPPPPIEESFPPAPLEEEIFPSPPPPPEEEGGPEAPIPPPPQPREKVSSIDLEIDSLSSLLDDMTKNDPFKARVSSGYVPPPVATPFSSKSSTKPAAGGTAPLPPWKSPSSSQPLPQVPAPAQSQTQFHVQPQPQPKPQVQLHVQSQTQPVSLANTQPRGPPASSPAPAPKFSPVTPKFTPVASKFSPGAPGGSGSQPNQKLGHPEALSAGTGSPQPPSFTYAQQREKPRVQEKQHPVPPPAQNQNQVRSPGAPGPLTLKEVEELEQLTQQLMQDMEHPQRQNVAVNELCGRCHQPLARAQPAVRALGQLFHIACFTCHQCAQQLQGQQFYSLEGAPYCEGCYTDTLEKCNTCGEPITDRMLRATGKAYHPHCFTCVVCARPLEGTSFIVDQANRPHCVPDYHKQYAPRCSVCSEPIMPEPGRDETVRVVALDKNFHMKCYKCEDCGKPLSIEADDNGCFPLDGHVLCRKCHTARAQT
Assay: cell-based or functional assay

quantity of Tes FL-GFP in focal adhesions of zyxin-null fibroblasts with Zyx FL WT-DsRed against the DsRed control (confocal immunofluorescence): 2 fold
B1: Tes FL-GFP (natural protein, UniProt Q9UGI8 1-421, looked up)
chain: MDLENKVKKMGLGHEQGFGAPCLKCKEKCEGFELHFWRKICRNCKCGQEEHDVLLSNEEDRKVGKLFEDTKYTTLIAKLKSDGIPMYKRNVMILTNPVAAKKNVSINTVTYEWAPPVQNQALARQYMQMLPKEKQPVAGSEGAQYRKKQLAKQLPAHDQDPSKCHELSPREVKEMEQFVKKYKSEALGVGDVKLPCEMDAQGPKQMNIPGGDRSTPAAVGAMEDKSAEHKRTQYSCYCCKLSMKEGDPAIYAERAGYDKLWHPACFVCSTCHELLVDMIYFWKNEKLYCGRHYCDSEKPRCAGCDELIFSNEYTQAENQNWHLKHFCCFDCDSILAGEIYVMVNDKPVCKPCYVKNHAVVCQGCHNAIDPEVQRVTYNNFSWHASTECFLCSCCSKCLIGQKFMPVEGMVFCSVECKKRMS
